Source: patent US20210163606A1 (ATYR PHARMA, published 2021)

Columns and labels:
[1] = target: T1, mouse NRP2 M400A on transfected Expi293 cells (Mouse, UniProt O35375 21-931); experiment: flow cytometry, aNRP2-10v10 at 10 nM on transfected Expi293 cells gated on live, single, NRP2 expressing cells [panel 11B]
T1 construct: whole, on cells
T1 sequence (looked up): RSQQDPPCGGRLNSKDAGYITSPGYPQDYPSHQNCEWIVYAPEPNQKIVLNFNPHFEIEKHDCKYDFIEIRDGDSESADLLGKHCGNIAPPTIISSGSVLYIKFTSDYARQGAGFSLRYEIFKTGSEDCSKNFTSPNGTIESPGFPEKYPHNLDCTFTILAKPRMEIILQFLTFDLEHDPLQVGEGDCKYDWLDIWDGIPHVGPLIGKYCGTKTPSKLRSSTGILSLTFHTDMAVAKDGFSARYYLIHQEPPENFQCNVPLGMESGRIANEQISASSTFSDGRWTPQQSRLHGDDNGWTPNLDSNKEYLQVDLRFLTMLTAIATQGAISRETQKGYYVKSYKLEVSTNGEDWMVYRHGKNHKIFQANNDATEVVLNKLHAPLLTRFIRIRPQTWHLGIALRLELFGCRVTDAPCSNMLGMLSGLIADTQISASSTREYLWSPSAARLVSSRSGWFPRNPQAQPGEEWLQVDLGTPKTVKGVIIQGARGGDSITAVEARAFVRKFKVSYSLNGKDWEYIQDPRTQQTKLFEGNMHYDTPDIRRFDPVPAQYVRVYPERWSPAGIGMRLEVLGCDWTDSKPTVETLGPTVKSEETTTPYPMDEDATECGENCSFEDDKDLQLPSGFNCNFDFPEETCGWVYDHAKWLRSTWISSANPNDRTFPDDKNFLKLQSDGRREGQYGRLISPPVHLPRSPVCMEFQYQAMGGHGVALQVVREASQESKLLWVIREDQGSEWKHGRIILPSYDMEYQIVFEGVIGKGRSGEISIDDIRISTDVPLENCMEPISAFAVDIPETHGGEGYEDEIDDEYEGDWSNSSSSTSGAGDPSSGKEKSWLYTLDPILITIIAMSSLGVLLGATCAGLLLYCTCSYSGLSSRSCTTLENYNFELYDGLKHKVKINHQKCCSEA
Procedure: (§1) FIGS. 11A-11B show the measurement of antibody binding to Expi293 cells over-expressing NRP2. […] Gating for NRP2 over-expressing cells is shown.
(§2) Human NRP2a (version 2; see Table N1) and mouse NRP2v2 cDNAs were obtained from Origene. […] Human and mouse NRP2, expression vectors, along with expression vectors encoding all 6 mutants were transfected into Expi293 cells at 1 million cells/mL, by standard techniques. Approximately 40 hours post transfection cells were co-stained with aNRP2-10v10, and a species agnostic anti-NRP2 a1 specific binding antibody.

[2] = target: T2, mouse NRP2 I407V on transfected Expi293 cells (Mouse, UniProt O35375 21-931); experiment: as above
T2 construct: whole, on cells
T2 sequence (looked up): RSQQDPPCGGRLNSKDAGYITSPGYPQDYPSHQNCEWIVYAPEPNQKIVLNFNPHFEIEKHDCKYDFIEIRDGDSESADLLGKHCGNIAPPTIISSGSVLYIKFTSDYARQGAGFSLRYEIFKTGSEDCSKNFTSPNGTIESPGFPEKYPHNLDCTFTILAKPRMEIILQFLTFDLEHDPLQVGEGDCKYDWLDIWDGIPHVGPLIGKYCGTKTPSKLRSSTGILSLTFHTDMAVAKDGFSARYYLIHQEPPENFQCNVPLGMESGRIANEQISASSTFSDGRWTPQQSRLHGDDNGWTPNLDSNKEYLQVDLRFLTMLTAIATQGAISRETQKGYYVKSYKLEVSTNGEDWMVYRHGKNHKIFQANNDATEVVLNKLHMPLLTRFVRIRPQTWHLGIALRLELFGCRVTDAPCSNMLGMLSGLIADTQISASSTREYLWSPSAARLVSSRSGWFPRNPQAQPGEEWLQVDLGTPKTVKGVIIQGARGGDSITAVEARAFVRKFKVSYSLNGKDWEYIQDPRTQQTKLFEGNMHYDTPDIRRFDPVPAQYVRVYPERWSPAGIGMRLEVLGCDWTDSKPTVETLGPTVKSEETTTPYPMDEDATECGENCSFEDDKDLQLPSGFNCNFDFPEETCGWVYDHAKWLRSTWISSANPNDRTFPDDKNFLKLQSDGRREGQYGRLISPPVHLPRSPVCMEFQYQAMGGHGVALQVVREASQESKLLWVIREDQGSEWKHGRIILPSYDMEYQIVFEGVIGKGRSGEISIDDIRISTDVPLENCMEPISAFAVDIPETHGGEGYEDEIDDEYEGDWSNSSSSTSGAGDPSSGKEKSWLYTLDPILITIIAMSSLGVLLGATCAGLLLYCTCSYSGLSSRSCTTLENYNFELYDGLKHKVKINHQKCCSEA
Procedure: as §1, §2

- binding result [1]: no binding (tested: 10 nM)
- binding result [2]: no binding (tested: 10 nM)
B1: aNRP2-10v10 (antibody, V domains shown)
VH: EVQLVQSGAEVKKPGATVKISCKVSGFNIKDYYVHWVQQAPGKGLEWMGRIDVEDDETKYAPKFQGRVTITADTSTDTAYMELSSLRSEDTAVYYCATPIYGAREAWFAYWGQGTLVTVSS
VL: DIQMTQSPSSLSASVGDRVTITCTASSSVSSSYLHWYQQKPGKAPKLLIYRTSNLASGVPSRFSGSGSGTDFTLTISSLQPEDFATYYCHQYYRSPPTFGGGTKVEIK
